The assay relates to H1975 lung adenocarcinoma cells. Kind of assay: LDH assay, H1975 cells, 48 hours co-culture with 1 μM Osimeritinib. In kind it is cell-based. The conditions noted are these: E:T 1:1, 48 hours, CD4+ T cells. The source says: CER30 comprises a Tim4 binding domain, Tim4 transmembrane domain, and an engulfment signaling domain comprising a primary engulfment signaling domain comprising a TRAF2 signaling domain. CER30 has a polypeptide sequence as set forth in SEQ ID NO:96. CER110 has a polypeptide sequence of SEQ ID NO:125 and comprises a Tim4 binding domain, Tim4 transmembrane domain, and an engulfment signaling domain comprising a primary engulfment signaling domain comprising a TRAF6 signaling domain and a secondary engulfment signaling domain comprising a DAP12 signaling domain. CER112 has a polypeptide sequence of SEQ ID NO:128 and comprises a Tim4 binding domain, Tim4 transmembrane domain, and an engulfment signaling domain comprising a primary engulfment signaling domain comprising a TRAF6 signaling domain and a secondary engulfment signaling domain comprising a NFAM1 signaling domain. CER127 has a polypeptide sequence of SEQ ID NO:175 and comprises a Tim4 binding domain, Tim4 transmembrane domain, and an engulfment signaling domain comprising a primary engulfment signaling domain comprising a TRAF2 signaling domain and a secondary engulfment signaling domain comprising a TLR2 signaling domain. H1975 cells are more resistant to EGFR inhibitors, so Osimeritinib was used at slightly higher concentration. H1975 lung adenocarcinoma cells harboring an EGFR mutation were co-cultured with CER-expressing or mock-transduced (vector only) CD4+ T cells with 1 μM of Osimeritinib. After 48 hours of co-culture at a 1:1 effector:target cell ratio, T cells were washed away, and the number of viable H1975 cells was quantified using a calorimetric LDH assay (FIG. 57). Cell viability experiments were performed in triplicate and presented as % of control.

This note sets out measurements from patent US11708423B2, “Chimeric engulfment receptor molecules and methods of use” (CERO THERAPEUTICS, INC., priority 2017, dated 2023).

B1: CER27: Tim4 binding and transmembrane domains, TLR2 signaling domain; SEQ ID NO:93 (protein)
chain: MSKGLLLLWLVTELWWLYLTPAASEDTIIGFLGQPVTLPCHYLSWSQSRNSMCWGKGSCPNSKCNAELLRTDGTRIISRKSTKYTLLGKVQFGEVSLTISNTNRGDSGVYCCRIEVPGWFNDVKKNVRLELRRATTTKKPTTTTRPTTTPYVTTTTPELLPTTVMTTSVLPTTTPPQTLATTAFSTAVTTCPSTTPGSFSQETTKGSAFTTESETLPASNHSQRSMMTISTDIAVLRPTGSNPGILPSTSQLTTQKTTLTTSESLQKTTKSHQINSRQTILIIACCVGFVLMVLLFLAFLHRFHGLWYMKMMWAWLQAKRKPRKAPSRNICYDAFVSYSERDAYWVENLMVQELENFNPPFKLCLHKRDFIPGKWIIDNIIDSIEKSHKTVFVLSENFVKSEWCKYELDFSHFRLFDENNDAAILILLEPIEKKAIPQRFCKLRKIMNTKTYLEWPMDEAQREGFWVNLRAAIKS
modifications: CER27 chimeric engulfment receptor
For the molecule B1, the “killing of H1975 cells (LDH)” value was “synergistic killing of H1975 lung adenocarcinoma cells upon EGFR inhibition”.

B2: CER129: Tim4 binding and transmembrane domains, TLR8 primary and TRAF2 secondary signaling domains; SEQ ID NO:177 (protein)
chain: MSKGLLLLWLVTELWWLYLTPAASEDTIIGFLGQPVTLPCHYLSWSQSRNSMCWGKGSCPNSKCNAELLRTDGTRIISRKSTKYTLLGKVQFGEVSLTISNTNRGDSGVYCCRIEVPGWFNDVKKNVRLELRRATTTKKPTTTTRPTTTPYVTTTTPELLPTTVMTTSVLPTTTPPQTLATTAFSTAVTTCPSTTPGSFSQETTKGSAFTTESETLPASNHSQRSMMTISTDIAVLRPTGSNPGILPSTSQLTTQKTTLTTSESLQKTTKSHQINSRQTILIIACCVGFVLMVLLFLAFLHHLFYWDVWFIYNVCLAKVKGYRSLSTSQTFYDAYISYDTKDASVTDWVINELRYHLEESRDKNVLLCLEERDWDPGLAIIDNLMQSINQSKKTVFVLTKKYAKSWNFKTAFYLALQRLMDENMDVIIFILLEPVLQHSQYLRLRQRICKSSILQWPDNPKAEGLFWQTLRNVVLTENDSRYNNMYVDSIKQYMAAASVTPPGSLELLQPGFSKTLLGTKLEAKYLCSACRNVLRRPFQAQCGHRYCSFCLASILSSGPQNCAACVHEGIYEEGISILESSSAFPDNAARREVESLPAVCPSDGCTWKGTLKEYESCHEGRCPLMLTECPACKGLVRLGEKERHLEHECPERSLSCRHCRAPCCGADVKAHHEVCPKFPLTCDGCGKKKIPREKFQDHVKTCGKCRVPCRFHAIGCLETVEGEKQQEHEVQWLREHLAMLLSSVLEAKPLLGDQSHAGSELLQRCESLEKKTATFENIVCVLNREVERVAMTAEAC
modifications: CER129 protein
B2: the “killing of H1975 cells (LDH)” value is on record as “synergistic killing of H1975 lung adenocarcinoma cells upon EGFR inhibition”.

B3: CER127: Tim4 binding and transmembrane domains, TRAF2 primary and TLR2 secondary signaling domains; SEQ ID NO:175 (protein)
chain: MSKGLLLLWLVTELWWLYLTPAASEDTIIGFLGQPVTLPCHYLSWSQSRNSMCWGKGSCPNSKCNAELLRTDGTRIISRKSTKYTLLGKVQFGEVSLTISNTNRGDSGVYCCRIEVPGWFNDVKKNVRLELRRATTTKKPTTTTRPTTTPYVTTTTPELLPTTVMTTSVLPTTTPPQTLATTAFSTAVTTCPSTTPGSFSQETTKGSAFTTESETLPASNHSQRSMMTISTDIAVLRPTGSNPGILPSTSQLTTQKTTLTTSESLQKTTKSHQINSRQTILIIACCVGFVLMVLLFLAFLMAAASVTPPGSLELLQPGFSKTLLGTKLEAKYLCSACRNVLRRPFQAQCGHRYCSFCLASILSSGPQNCAACVHEGIYEEGISILESSSAFPDNAARREVESLPAVCPSDGCTWKGTLKEYESCHEGRCPLMLTECPACKGLVRLGEKERHLEHECPERSLSCRHCRAPCCGADVKAHHEVCPKFPLTCDGCGKKKIPREKFQDHVKTCGKCRVPCRFHAIGCLETVEGEKQQEHEVQWLREHLAMLLSSVLEAKPLLGDQSHAGSELLQRCESLEKKTATFENIVCVLNREVERVAMTAEACHRFHGLWYMKMMWAWLQAKRKPRKAPSRNICYDAFVSYSERDAYWVENLMVQELENFNPPFKLCLHKRDFIPGKWIIDNIIDSIEKSHKTVFVLSENFVKSEWCKYELDFSHFRLFDENNDAAILILLEPIEKKAIPQRFCKLRKIMNTKTYLEWPMDEAQREGFWVNLRAAIKS
modifications: CER127 protein
B3: the “killing of H1975 cells (LDH)” value is given as “synergistic killing of H1975 lung adenocarcinoma cells upon EGFR inhibition”.

B4: CER124: Tim4 binding and transmembrane domains, TLR2 primary and NFAM1 secondary signaling domains; SEQ ID NO:151 (protein)
chain: MSKGLLLLWLVTELWWLYLTPAASEDTIIGFLGQPVTLPCHYLSWSQSRNSMCWGKGSCPNSKCNAELLRTDGTRIISRKSTKYTLLGKVQFGEVSLTISNTNRGDSGVYCCRIEVPGWFNDVKKNVRLELRRATTTKKPTTTTRPTTTPYVTTTTPELLPTTVMTTSVLPTTTPPQTLATTAFSTAVTTCPSTTPGSFSQETTKGSAFTTESETLPASNHSQRSMMTISTDIAVLRPTGSNPGILPSTSQLTTQKTTLTTSESLQKTTKSHQINSRQTILIIACCVGFVLMVLLFLAFLHRFHGLWYMKMMWAWLQAKRKPRKAPSRNICYDAFVSYSERDAYWVENLMVQELENFNPPFKLCLHKRDFIPGKWIIDNIIDSIEKSHKTVFVLSENFVKSEWCKYELDFSHFRLFDENNDAAILILLEPIEKKAIPQRFCKLRKIMNTKTYLEWPMDEAQREGFWVNLRAAIKSLWNKKRMRGPGKDPTRKCPDPRSASSPKQHPSESVYTALQRRETEVYACIENEDGSSPTAKQSPLSQERPHRFEDDGELNLVYENL
modifications: CER124 protein
In the case of B4, the “killing of H1975 cells (LDH)” value is listed as “synergistic killing of H1975 lung adenocarcinoma cells upon EGFR inhibition”.

B5: CER30: Tim4 binding and transmembrane domains, Traf2 signaling domain; SEQ ID NO:96 (protein)
chain: MSKGLLLLWLVTELWWLYLTPAASEDTIIGFLGQPVTLPCHYLSWSQSRNSMCWGKGSCPNSKCNAELLRTDGTRIISRKSTKYTLLGKVQFGEVSLTISNTNRGDSGVYCCRIEVPGWFNDVKKNVRLELRRATTTKKPTTTTRPTTTPYVTTTTPELLPTTVMTTSVLPTTTPPQTLATTAFSTAVTTCPSTTPGSFSQETTKGSAFTTESETLPASNHSQRSMMTISTDIAVLRPTGSNPGILPSTSQLTTQKTTLTTSESLQKTTKSHQINSRQTILIIACCVGFVLMVLLFLAFLMAAASVTPPGSLELLQPGFSKTLLGTKLEAKYLCSACRNVLRRPFQAQCGHRYCSFCLASILSSGPQNCAACVHEGIYEEGISILESSSAFPDNAARREVESLPAVCPSDGCTWKGTLKEYESCHEGRCPLMLTECPACKGLVRLGEKERHLEHECPERSLSCRHCRAPCCGADVKAHHEVCPKFPLTCDGCGKKKIPREKFQDHVKTCGKCRVPCRFHAIGCLETVEGEKQQEHEVQWLREHLAMLLSSVLEAKPLLGDQSHAGSELLQRCESLEKKTATFENIVCVLNREVERVAMTAEAC
modifications: CER30 chimeric engulfment receptor
In the case of B5, the “killing of H1975 cells (LDH)” value is on record as “synergistic killing of H1975 lung adenocarcinoma cells upon EGFR inhibition”.
